Source: article PMC10491584, “Structural convergence endows nuclear transport receptor Kap114p with a transcriptional repressor function toward TATA-binding protein” (Nature Communications, 2023)
Where “and” joins values, the source holds several entries; their conditions need not be identical. Equal values may be shown once.

Key:
Kap114pΔY933 = molecular target: T1, Kap114pΔY933 (S. cerevisiae, UniProt P53067 1-1004, ΔY933); experiment: ITC; Kap114p (wild type or mutant) 50 uM in the sample cell, partner 500 uM in the syringe; 25 °C; 20 mM HEPES pH 7.4, 150 mM NaCl; triplicate; details: both partners purified
T1 construct: Kap114p, S. cerevisiae, full length with residue Y933 deleted; also called Kap114p(DY933); source: E. coli (Rosetta strain), purified (GST resin, MonoQ, Superdex 200)
T1 sequence (looked up): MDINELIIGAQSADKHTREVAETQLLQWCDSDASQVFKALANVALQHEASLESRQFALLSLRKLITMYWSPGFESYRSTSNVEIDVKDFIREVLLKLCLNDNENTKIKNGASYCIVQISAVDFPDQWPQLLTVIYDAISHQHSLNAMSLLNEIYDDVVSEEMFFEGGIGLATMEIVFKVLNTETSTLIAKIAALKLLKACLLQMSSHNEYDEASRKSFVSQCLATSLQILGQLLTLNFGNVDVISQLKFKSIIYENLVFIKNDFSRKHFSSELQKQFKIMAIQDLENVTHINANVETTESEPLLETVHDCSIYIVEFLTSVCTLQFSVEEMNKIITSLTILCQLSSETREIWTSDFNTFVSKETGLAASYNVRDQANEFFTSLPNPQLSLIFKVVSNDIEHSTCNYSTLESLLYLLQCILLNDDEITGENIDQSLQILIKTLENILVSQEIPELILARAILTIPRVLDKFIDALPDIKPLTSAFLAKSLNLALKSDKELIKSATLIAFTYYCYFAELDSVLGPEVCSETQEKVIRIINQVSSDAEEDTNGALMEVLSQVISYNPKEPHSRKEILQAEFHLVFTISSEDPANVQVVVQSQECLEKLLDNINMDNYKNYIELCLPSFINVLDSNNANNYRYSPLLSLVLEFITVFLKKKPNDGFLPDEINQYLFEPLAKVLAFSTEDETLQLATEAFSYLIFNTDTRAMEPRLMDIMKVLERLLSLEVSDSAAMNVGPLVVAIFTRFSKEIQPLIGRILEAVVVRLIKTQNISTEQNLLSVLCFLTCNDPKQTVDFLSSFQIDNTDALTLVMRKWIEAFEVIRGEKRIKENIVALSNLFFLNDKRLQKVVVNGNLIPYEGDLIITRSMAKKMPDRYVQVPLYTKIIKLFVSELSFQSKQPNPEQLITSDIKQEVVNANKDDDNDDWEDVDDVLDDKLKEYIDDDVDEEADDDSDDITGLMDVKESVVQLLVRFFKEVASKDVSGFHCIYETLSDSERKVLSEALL

Kap114pΔ(848-875) = molecular target: T2, Kap114pΔ(848-875) (S. cerevisiae, UniProt P53067 1-1004, Δ(848-875)); experiment: as above; details: both partners purified
T2 construct: also called Kap114p(D848-875); source: E. coli (Rosetta strain), purified (GST resin, MonoQ, Superdex 200)
T2 sequence (looked up): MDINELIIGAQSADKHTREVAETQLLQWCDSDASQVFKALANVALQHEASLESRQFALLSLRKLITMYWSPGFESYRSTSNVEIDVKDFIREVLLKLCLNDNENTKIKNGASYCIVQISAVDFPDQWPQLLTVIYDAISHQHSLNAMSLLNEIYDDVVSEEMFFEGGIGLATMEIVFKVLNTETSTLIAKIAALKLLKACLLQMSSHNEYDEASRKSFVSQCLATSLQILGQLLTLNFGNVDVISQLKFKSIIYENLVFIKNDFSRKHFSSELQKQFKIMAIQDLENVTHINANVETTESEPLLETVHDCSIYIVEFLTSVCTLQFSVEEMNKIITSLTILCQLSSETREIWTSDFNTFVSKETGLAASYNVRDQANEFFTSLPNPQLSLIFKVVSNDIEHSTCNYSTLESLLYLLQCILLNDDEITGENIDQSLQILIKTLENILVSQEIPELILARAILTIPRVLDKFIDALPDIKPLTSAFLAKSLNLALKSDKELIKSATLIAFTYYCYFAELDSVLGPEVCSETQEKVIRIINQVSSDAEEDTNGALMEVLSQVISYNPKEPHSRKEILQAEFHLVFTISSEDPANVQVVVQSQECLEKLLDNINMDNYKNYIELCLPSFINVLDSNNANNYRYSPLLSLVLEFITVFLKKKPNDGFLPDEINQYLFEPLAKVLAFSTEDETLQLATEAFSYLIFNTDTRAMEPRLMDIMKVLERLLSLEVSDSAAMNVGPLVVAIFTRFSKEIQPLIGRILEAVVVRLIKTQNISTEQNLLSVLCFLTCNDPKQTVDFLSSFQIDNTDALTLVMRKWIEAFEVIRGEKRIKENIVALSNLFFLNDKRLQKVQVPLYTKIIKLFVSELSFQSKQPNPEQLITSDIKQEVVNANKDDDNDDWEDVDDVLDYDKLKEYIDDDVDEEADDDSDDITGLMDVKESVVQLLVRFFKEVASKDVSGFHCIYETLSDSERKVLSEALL

B1: core domain of yTBP (a.a. 61-240) (domain or fragment, S. cerevisiae, UniProt P13393 61-240, looked up)
chain: SGIVPTLQNIVATVTLGCRLDLKTVALHARNAEYNPKRFAAVIMRIREPKTTALIFASGKMVVTGAKSEDDSKLASRKYARIIQKIGFAAKFTDFKIQNIVGSCDVKFPIRLEGLAFSHGTFSSYEPELFPGLIYRMVKPKIVLLIFVSGKIVLTGAKQREEIYQAFEAIYPVLSEFRKM
notes: 61-240; also called yTBP^C; yTBPc; source: E. coli (Rosetta strain), purified (Ni-NTA, HiTrap SP, Superdex 75); not shown: 6xHis, N-terminal, cleaved
**Q.** What does the source list for B1?
**A.** Ka (Kap114pΔY933): 1.91e+08 M⁻¹ and 1.5e+08 M⁻¹ and 8.48e+07 M⁻¹; Kd (Kap114pΔY933): 7.7 nM; Ka (Kap114pΔ(848-875)): 4.16e+08 M⁻¹ and 7.85e+08 M⁻¹ and 6.96e+08 M⁻¹; Kd (Kap114pΔ(848-875)): 1.7 nM
